Here are results for 61 molecules from patent US20160279215A1, “NOVEL PEPTIDES AND COMBINATION OF PEPTIDES FOR USE IN IMMUNOTHERAPY AGAINST VARIOUS TUMORS” (immatics biotechnologies GmbH, priority 2015, published 2016).

Sequences and labels used below:
B1: HMSGKLTNV (peptide)
peptide: HMSGKLTNV
B2: MTLSEIHAV (peptide)
peptide: MTLSEIHAV
B3: KLIGNIHGNEV (peptide)
peptide: KLIGNIHGNEV
B4: SVADLAHVL (peptide)
peptide: SVADLAHVL
B5: VLQQESNFL (peptide)
peptide: VLQQESNFL
B6: QIADIVTSV (peptide)
peptide: QIADIVTSV
B7: RVLPGQAVTGV (peptide)
peptide: RVLPGQAVTGV
B8: KLMDPGSLPPL (peptide)
peptide: KLMDPGSLPPL
B9: QIVELIEKI (peptide)
peptide: QIVELIEKI
B10: GVVPTIQKV (peptide)
peptide: GVVPTIQKV
notes: also called GWPTIQKV
B11: LKVLKADVVL (peptide)
peptide: LKVLKADVVL
B12: YLADTVQKL (peptide)
peptide: YLADTVQKL
B13: GLLENSPHL (peptide)
peptide: GLLENSPHL
B14: VLSTRVTNV (peptide)
peptide: VLSTRVTNV
B15: GLAEFQENV (peptide)
peptide: GLAEFQENV
B16: IMLNSVEEI (peptide)
peptide: IMLNSVEEI
B17: KMISAIPTL (peptide)
peptide: KMISAIPTL
B18: GLAFLPASV (peptide)
peptide: GLAFLPASV
B19: TIGIPFPNV (peptide)
peptide: TIGIPFPNV
B20: KLLDKPEQFL (peptide)
peptide: KLLDKPEQFL
notes: also called FMN1-001
B21: SLDKDIVAL (peptide)
peptide: SLDKDIVAL
B22: KQMSISTGL (peptide)
peptide: KQMSISTGL
B23: AMLASQTEA (peptide)
peptide: AMLASQTEA
B24: FLLDKPQDL (peptide)
peptide: FLLDKPQDL
B25: ILAEEPIYI (peptide)
peptide: ILAEEPIYI
B26: KLLEEVQLL (peptide)
peptide: KLLEEVQLL
B27: SLSEKSPEV (peptide)
peptide: SLSEKSPEV
B28: NLLIDDKGTIKL (peptide)
peptide: NLLIDDKGTIKL
B29: HLNNDRNPL (peptide)
peptide: HLNNDRNPL
B30: RLYGYFHDA (peptide)
peptide: RLYGYFHDA
B31: AMFPDTIPRV (peptide)
peptide: AMFPDTIPRV
B32: VLMDEGAVLTL (peptide)
peptide: VLMDEGAVLTL
B33: LLTGVFAQL (peptide)
peptide: LLTGVFAQL
B34: TLHDQVHLL (peptide)
peptide: TLHDQVHLL
notes: also called ESR1-001
B35: LLLESDPKVYSL (peptide)
peptide: LLLESDPKVYSL
B36: SLYAGSNNQV (peptide)
peptide: SLYAGSNNQV
B37: ALGDKFLLRV (peptide)
peptide: ALGDKFLLRV
B38: AILNVDEKNQV (peptide)
peptide: AILNVDEKNQV
B39: LLPSIFLMV (peptide)
peptide: LLPSIFLMV
B40: TLDRNSLYV (peptide)
peptide: TLDRNSLYV
B41: ILTNKVVSV (peptide)
peptide: ILTNKVVSV
B42: HLQEKLQSL (peptide)
peptide: HLQEKLQSL
B43: QLVQRVASV (peptide)
peptide: QLVQRVASV
B44: SLLNQPKAV (peptide)
peptide: SLLNQPKAV
B45: GLTEKTVLV (peptide)
peptide: GLTEKTVLV
B46: TLYPGRFDYV (peptide)
peptide: TLYPGRFDYV
B47: FVMEGEPPKL (peptide)
peptide: FVMEGEPPKL
B48: ALLEEEEGV (peptide)
peptide: ALLEEEEGV
notes: also called MAGEA4-003
B49: TVLEEIGNRV (peptide)
peptide: TVLEEIGNRV
B50: AVPPPPSSV (peptide)
peptide: AVPPPPSSV
B51: SLYALHVKA (peptide)
peptide: SLYALHVKA
B52: LDSEALLTL (peptide)
peptide: LDSEALLTL
B53: ALSTVTPRI (peptide)
peptide: ALSTVTPRI
B54: IKVTDPQLLEL (peptide)
peptide: IKVTDPQLLEL
B55: SLMEKNQSL (peptide)
peptide: SLMEKNQSL
B56: YLYELEHAL (peptide)
peptide: YLYELEHAL
B57: FLFVDPELV (peptide)
peptide: FLFVDPELV
B58: ALDTTRHEL (peptide)
peptide: ALDTTRHEL
B59: SLNKQIETV (peptide)
peptide: SLNKQIETV
B60: VLLGSVVIFA (peptide)
peptide: VLLGSVVIFA
B61: VIIKGLEEI (peptide)
peptide: VIIKGLEEI

This assay concerns the target T1, HLA-A*02:01 (human).
T1 construct: MHC monomers captured on streptavidin plates; the UV-sensitive peptide is cleaved and exchanged with the test peptide; also called peptide-receptive MHC molecules; MHC class I
As to the kind of experiment: UV ligand-exchange ELISA (anti-b2m); ++ = exchange yield >=20%. From the text:
Candidate peptides for T cell based therapies according to the present invention were further tested for their MHC binding capacity (affinity). The individual peptide-MHC complexes were produced by UV-ligand exchange, where a UV-sensitive peptide is cleaved upon UV-irradiation, and exchanged with the peptide of interest as analyzed. Only peptide candidates that can effectively bind and stabilize the peptide-receptive MHC molecules prevent dissociation of the MHC complexes. To determine the yield of the exchange reaction, an ELISA was performed based on the detection of the light chain (β2m) of stabilized MHC complexes. The assay was performed as generally described in Rodenko et al. (Rodenko et al., 2006).
96 well MAXISorp plates (NUNC) were coated over night with 2 ug/ml streptavidin in PBS at room temperature, washed 4× and blocked for 1 h at 37° C. in 2% BSA containing blocking buffer. Refolded HLA-A*02:01/MLA-001 monomers served as standards, covering the range of 15-500 ng/ml. Peptide-MHC monomers of the UV-exchange reaction were diluted 100 fold in blocking buffer. Samples were incubated for 1 h at 37° C., washed four times, incubated with 2 ug/ml HRP conjugated anti-β2m for 1 h at 37° C., washed again and detected with TMB solution that is stopped with […]. Absorption was measured at 450 nm. Candidate peptides that show a high exchange yield (preferably higher than 50%, most preferred higher than 75%) are generally preferred for a generation and production of antibodies or fragments thereof, and/or T cell receptors or fragments thereof, as they show sufficient avidity to the MHC molecules and prevent dissociation of the MHC complexes.
For B1, the peptide exchange yield was 20 to 50%.

As to B2, the peptide exchange yield was in the range of 20 to 50%.

Molecule B3 displayed a peptide exchange yield of 20 to 50%.

B4: the peptide exchange yield is 20 to 50%.

With B5, the peptide exchange yield fell in the range of 20 to 50%.

With B6, the peptide exchange yield was in the range of 20 to 50%.

For B7, the peptide exchange yield was 20 to 50%.

In turn, B8 displayed a peptide exchange yield of 20 to 50%.

As for B9, the peptide exchange yield was 20 to 50%.

With B10, the peptide exchange yield lay within 20 to 50%.

Molecule B11 displayed a peptide exchange yield of 20 to 50%.

For B12, the peptide exchange yield lay in the range of 20 to 50%.

B13: the peptide exchange yield was in the range of 20 to 50%.

The molecule B14 came in with a peptide exchange yield of 20 to 50%.

With B15, the peptide exchange yield lay in the range of 20 to 50%.

Consider B16, for which the peptide exchange yield is 20 to 50%.

With B17, the peptide exchange yield was 20 to 50%.

Take B18: the peptide exchange yield lay in the range of 20 to 50%.

With B19, the peptide exchange yield was 20 to 50%.

In the case of B20, the peptide exchange yield fell in the range of 20 to 50%.

With B21, the peptide exchange yield was in the range of 20 to 50%.

B22 gave a peptide exchange yield of 20 to 50%.

The molecule B23 gave a peptide exchange yield of 20 to 50%.

B24 displayed a peptide exchange yield of 20 to 50%.

B25: the peptide exchange yield fell in the range of 20 to 50%.

In turn, B26 gave a peptide exchange yield of 20 to 50%.

In turn, B27 displayed a peptide exchange yield of 20 to 50%.

In the case of B28, the peptide exchange yield lay within 20 to 50%.

Regarding B29, the peptide exchange yield was in the range of 20 to 50%.

In turn, B30 returned a peptide exchange yield of 20 to 50%.

B31 came in with a peptide exchange yield of 20 to 50%.

B32 showed a peptide exchange yield of 20 to 50%.

Molecule B33 gave a peptide exchange yield of 20 to 50%.

B34 showed a peptide exchange yield of 20 to 50%.

On to B35, for which the peptide exchange yield is 20 to 50%.

B36: the peptide exchange yield was in the range of 20 to 50%.

Molecule B37 returned a peptide exchange yield of 20 to 50%.

On to B38, for which the peptide exchange yield was in the range of 20 to 50%.

As to B39, the peptide exchange yield was 20 to 50%.

In turn, B40 showed a peptide exchange yield of 20 to 50%.

In turn, B41 returned a peptide exchange yield of 20 to 50%.

Consider B42, for which the peptide exchange yield lay within 20 to 50%.

The molecule B43 showed a peptide exchange yield of 20 to 50%.

Take B44: the peptide exchange yield lay within 20 to 50%.

Consider B45, for which the peptide exchange yield is 20 to 50%.

Regarding B46, the peptide exchange yield fell in the range of 20 to 50%.

As for B47, the peptide exchange yield was in the range of 20 to 50%.

For the molecule B48, the peptide exchange yield was 20 to 50%.

The molecule B49 returned a peptide exchange yield of 20 to 50%.

Molecule B50 showed a peptide exchange yield of 20 to 50%.

B51 returned a peptide exchange yield of 20 to 50%.

B52 registered a peptide exchange yield of 20 to 50%.

The molecule B53 registered a peptide exchange yield of 20 to 50%.

In turn, B54 yielded a peptide exchange yield of 20 to 50%.

Molecule B55 yielded a peptide exchange yield of 20 to 50%.

Molecule B56 yielded a peptide exchange yield of 20 to 50%.

Consider B57, for which the peptide exchange yield lay in the range of 20 to 50%.

Turning to B58, the peptide exchange yield lay within 20 to 50%.

On to B59, for which the peptide exchange yield was in the range of 20 to 50%.

In the case of B60, the peptide exchange yield fell in the range of 20 to 50%.

B61 displayed a peptide exchange yield of 20 to 50%.
